The results in this text go back to patent publication US20230140293A1.

Holding throughout (assay): ELISA, gp120 on plate
On the technique in general: In an ELISA, binding on a coated surface is turned into a signal by an enzyme label.

In test [1] the target is CH505 w020.14 gp120 (HIV-1).
Test [2] deals with CH505 w053.16 gp120 (HIV-1).
Test [3] deals with CH505 w100.B6 gp120 (HIV-1).
In test [4] the target is CH505 w030.21 gp120 (HIV-1).
Test [5] concerns the target CH505 transmitted/founder (TF) gp120 (HIV-1).
For test [6], the target named is CH505 w030.28 gp120 (HIV-1).
A further test concerns the target CH505 M5 gp120 (HIV-1).
The target in test [7] is CH505 w078.33 gp120 (HIV-1).
For a further test, the target named is CH505 M11 gp120 (HIV-1).
Test [8] deals with CH505 w053.31 gp120 (HIV-1).
Test [9] addresses CH505 w078.15 gp120 (HIV-1).

Turning to “CH103 lineage intermediate ancestor IA1 (antibody)”, the log AUC stood at 10.3 log AUC in test [1]; 8.8 log AUC in test [2]; 12.2 log AUC in test [3]; 11.8 log AUC in [4]; 10.4 log AUC in [5]; 10.1 log AUC in test [6]. Further, the log AUC was determined as 7 log AUC with CH505 M5 gp120 (HIV-1); 8.2 log AUC in test [7]; 12.2 log AUC with CH505 M11 gp120 (HIV-1); 13.4 log AUC in test [8]; 10.9 log AUC in test [9].

Take “CH103 lineage intermediate ancestor IA2 (antibody)”: the log AUC was 11 log AUC in [1]; 9.3 log AUC in test [2]; 12.1 log AUC in [3]; 11.5 log AUC in test [4]; 10.8 log AUC in test [5]; 11.1 log AUC in test [6]. The log AUC with CH505 M5 gp120 (HIV-1) came out at 7.8 log AUC; in test [7], 9 log AUC; in the test with CH505 M11 gp120 (HIV-1), 12.7 log AUC; in test [8], 13.3 log AUC; in test [9], 11.5 log AUC.
